The results in this text go back to PMC12582567, “Short heat shock factor A2 regulates heat resistance and growth balance in Arabidopsis”.

In data set [1] the target is T1, His6-HsfA2 (Arabidopsis thaliana Col-0, UniProt O80982 1-345). Put plainly: streptavidin-agarose pull-down; 0 hr prebinding control; EMSA: LightShift kit 1x binding buffer, 50 ng poly(dI-dC), 2.5% glycerol, 0.05% NP-40, 5 mM MgCl2, 100 ng protein, 1.5 ng probe, 30 min, room temperature; pull-down: 50 mM Tris-HCl pH 7.5, 100 mM NaCl, 0.1% Triton X-100, poly(dI-dC), 25 C. The following applies: protein: recombinant; tags: His6 (pET-28a); chain copies: 3; label: 5' biotin; blunt. Background: A gel shift assay detects complexes by their altered migration in electrophoresis.

Data set [2] has as its target His6-DBD (Arabidopsis thaliana Col-0, UniProt O80982 42-135). Put plainly: EMSA; EMSA: LightShift kit 1x binding buffer, 50 ng poly(dI-dC), 2.5% glycerol, 0.05% NP-40, 5 mM MgCl2, 100 ng protein, 1.5 ng probe, 30 min, room temperature; pull-down: 50 mM Tris-HCl pH 7.5, 100 mM NaCl, 0.1% Triton X-100, poly(dI-dC), 25 C. The following applies: protein: recombinant; tags: His6 (pET-28a); label: 5' biotin; blunt.

Data set [3] deals with His6-tDBD (Arabidopsis thaliana Col-0, UniProt J7G1E7 42-103). Described as above. To be noted: protein: recombinant; tags: His6 (pET-28a); label: 5' biotin; blunt.
For data set [4], the target named is T1, His6-HsfA2. The description is as above. To be noted: protein: recombinant; tags: His6 (pET-28a); chain copies: 3; label: 5' biotin; blunt.
For data set [5], the target named is His6-S-HsfB2a (Arabidopsis thaliana Col-0, UniProt J7G5V7 1-85). The data set is described as above. The following applies: protein: recombinant; tags: His6 (pET-28a); label: 5' biotin; blunt.
For data set [6], the target named is His6-S-HsfB1 (Arabidopsis thaliana Col-0, UniProt J7FYU6 1-86). The description is as above. To be noted: protein: recombinant; tags: His6 (pET-28a); label: 5' biotin; blunt.
Data set [7] concerns the target His6-S-HsfA4c (Arabidopsis thaliana Col-0, UniProt J7FXE8 1-102). The data set is described as above. The following applies: protein: recombinant; tags: His6 (pET-28a); label: 5' biotin; blunt.

T1 sequence (O80982 whole entry): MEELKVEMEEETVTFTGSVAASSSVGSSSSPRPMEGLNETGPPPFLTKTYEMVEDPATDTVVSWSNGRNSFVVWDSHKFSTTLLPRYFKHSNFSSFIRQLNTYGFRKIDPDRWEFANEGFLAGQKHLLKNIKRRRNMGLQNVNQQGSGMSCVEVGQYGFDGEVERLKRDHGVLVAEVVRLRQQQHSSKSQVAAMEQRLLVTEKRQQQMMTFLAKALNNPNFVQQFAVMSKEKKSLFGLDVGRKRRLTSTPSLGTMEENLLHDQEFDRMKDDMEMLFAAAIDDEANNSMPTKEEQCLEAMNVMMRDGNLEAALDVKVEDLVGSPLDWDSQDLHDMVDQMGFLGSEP
Chain of His6-DBD (O80982 42-135): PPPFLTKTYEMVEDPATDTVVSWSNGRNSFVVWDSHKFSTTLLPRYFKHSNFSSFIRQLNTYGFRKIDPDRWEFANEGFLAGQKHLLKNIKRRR
Chain of His6-S-HsfB2a (J7G5V7 entry or part of it): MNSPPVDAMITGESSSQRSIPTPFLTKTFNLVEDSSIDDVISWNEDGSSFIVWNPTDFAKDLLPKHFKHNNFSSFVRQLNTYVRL
Chain of His6-S-HsfB1 (J7FYU6 entry or part of it): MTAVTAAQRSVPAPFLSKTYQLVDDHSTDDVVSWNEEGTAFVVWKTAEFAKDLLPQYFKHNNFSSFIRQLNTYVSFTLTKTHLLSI
Chain of His6-tDBD (J7G1E7 entry or part of it): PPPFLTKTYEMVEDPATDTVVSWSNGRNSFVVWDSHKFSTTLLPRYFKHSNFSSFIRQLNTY
Chain of His6-S-HsfA4c (J7FXE8 entry or part of it): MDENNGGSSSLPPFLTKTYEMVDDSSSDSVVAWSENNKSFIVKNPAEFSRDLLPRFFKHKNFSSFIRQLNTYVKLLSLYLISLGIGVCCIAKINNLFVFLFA

B1: HSE probe (dsDNA)
DNA 1: TCGACTTCTAGAAGCTTCCAGAAATTAG
DNA 2: CTAATTTCTGGAAGCTTCTAGAAGTCGA
Consider B1, for which the binding result in data set [1] and in data set [2] was “binds” each time.

B2: 3xHRE probe (dsDNA)
DNA 1: GAAGAAGGAAGAAGGAAGAAG
DNA 2: CTTCTTCCTTCTTCCTTCTTC
Turning to B2, the binding result was “binds” in data set [3]; “no binding” in data set [4]; “no binding” in data set [5]; “binds” in data set [6]; “binds” in data set [7].
